Test results reported in the supplement of paper PMC12783771.
± gives the standard deviation of the averaged measurements.

B1: library; numbered along this chain (parent)
chain: MNIQIGELAKRTACPVVTIRFYEQEGLLPPPGRSRGNFRLYGEEHVERLQFIRHCRSLDMPLSDVRTLLSYRKRPDQDCGEVNMLLDEHIRQVESRIGALLELKHHLVELREACSGARPAQSCGILQGLSDCVCDTRGTTAHPSD

Experiments:
[1] = variants of: B1; assay: sfGFP reporter fluorescence (15 h) (µM FITC); higher = higher leak; conditions: library round: Round 0; ligand: none
Procedure, shortened: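 An Echo normalized PCR-made linear PbrR templates to 5 nM and assembled 1 μL reactions in BL21 Star (DE3) PANOx-SP extract carrying the pPbrR-sfGFP reporter plasmid and 30 μg/mL GamS. Reactions received 1 µM lead chloride, 30 µM zinc acetate or no metal and stood 15 hr at 30 °C. Fluorescence at 485/528 nm (Synergy Neo2) was converted with FITC standard curves made in 50 mM sodium borate pH 8.5. Endpoint sfGFP signal is given in µM FITC, from up to three biological replicates.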

[2] = variants of: B1; assay: sfGFP reporter fluorescence (15 h) (µM FITC); higher = stronger transcriptional activation; conditions: library round: Round 0
Procedure: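 Cell-free (BL21 Star DE3 extract, PANOx-SP) biosensing: 1 µL Echo-assembled reactions with linear PbrR variant templates (5 nM) and pPbrR-sfGFP reporter, with 1 µM Pb (lead chloride), 30 µM Zn (zinc acetate) or no ligand; endpoint sfGFP fluorescence after 15 h at 30 °C, calibrated as µM FITC. Round 0 library (alanine scan, site saturation, combinatorial) of PbrR from Cupriavidus metallidurans; 2 biological replicates.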

Variant | sfGFP reporter fluorescence [1] | sfGFP reporter fluorescence ([2]; ligand: 1 µM Pb) | sfGFP reporter fluorescence ([2]; ligand: 30 µM Zn)
L129E | 0.0581 ± 0.0013 | 0.0597 ± 0.0021 | 0.0546 ± 0.0015
L129T | 0.05827 ± 0.00052 | 0.0581 ± 0.00078 | 0.055 ± 0.0021
D135Q | 0.0574 ± 0.0023 | 0.0826 ± 0.0023 | 1.28 ± 0.13
D135K | 0.0618 ± 0.0018 | 0.085 ± 0.0015 | 0.962 ± 0.052
D135V | 0.059 ± 0.001 | 0.081 ± 0.0015 | 1.06 ± 0.13
D135T | 0.0608 | 0.088 ± 0.001 | 1.13 ± 0.12
D135C | 0.0603 ± 0.0013 | 0.0792 ± 0.0036 | 1.73 ± 0.12
G128F | 0.0671 ± 0.0047 | 0.199 ± 0.023 | 1.2 ± 0.12
G128E | 0.0599 ± 0.00078 | 0.0713 ± 0.0013 | 0.535 ± 0.051
G128C | 0.0629 ± 0.0018 | 0.0964 ± 0.0036 | 0.16 ± 0.008
L126G | 0.0539 ± 0.0015 | 0.05571 ± 0.00052 | 0.0502 ± 0.0021
L126E | 0.0594 ± 0.0021 | 0.05772 ± 0.00026 | 0.0557 ± 0.001
L126K | 0.0597 ± 0.0031 | 0.05919 ± 0.00026 | 0.0564 ± 0.001
L126Q | 0.05901 ± 0.00052 | 0.0577 ± 0.0018 | 0.05534 ± 0.00052
P143Y | 0.05846 ± 0.00026 | 0.0834 ± 0.0039 | 0.73 ± 0.013
P15I | 0.06047 ± 0.00052 | 0.0612 ± 0.0015 | 0.288 ± 0.026
P15Q | 0.0654 ± 0.00078 | 0.0903 ± 0.0029 | 0.9395 ± 0.0039
M60L P61N L107C | 1.39 ± 0.39 | 2.42 ± 0.21 | 5.07 ± 0.26
L28K | 0.06304 ± 0.00052 | 0.0625 ± 0.0018 | 0.05809 ± 0.00026
L28H | 0.06249 ± 0.00026 | 0.0625 ± 0.0013 | 0.0563 ± 0.0034
R33H | 0.0623 ± 0.00052 | 0.0607 ± 0.0029 | 0.0707
R33G | 0.0577 ± 0.00078 | 0.0575 ± 0.0015 | 0.0599 ± 0.0018

Variant | sfGFP reporter fluorescence [1] | sfGFP reporter fluorescence ([2]; ligand: 1 µM Pb) | sfGFP reporter fluorescence ([2]; ligand: 30 µM Zn)
R33Q | 0.0623 ± 0.001 | 0.0612 ± 0.001 | 0.0711 ± 0.0026
M60L P61N D64K G128I | 0.944 ± 0.037 | 3.29 ± 0.078 | 3.77 ± 0.81
I97W | 0.0585 ± 0.006 | 0.0616 ± 0.0015 | 0.176 ± 0.0073
I97F | 0.0535 ± 0.0042 | 0.0592 ± 0.0029 | 0.278 ± 0.036
L62S | 0.0619 ± 0.0015 | 0.063 ± 0.001 | 0.0744 ± 0.001
L62F | 0.0599 ± 0.0023 | 0.0652 ± 0.0015 | 0.168 ± 0.0039
E7Y | 0.06249 ± 0.00026 | 0.06542 ± 0.00026 | 0.2223 ± 0.00026
E7C | 0.06121 ± 0.00052 | 0.0718 ± 0.0021 | 0.421 ± 0.026
C114T | 0.0583 ± 0.0015 | 0.05864 ± 0.00052 | 0.0544 ± 0.0039
C114F | 0.0572 ± 0.0015 | 0.0577 ± 0.00078 | 0.053 ± 0.0013
C114I | 0.05717 ± 0.00052 | 0.0942 ± 0.0015 | 0.863 ± 0.012
C114S | 0.05754 ± 0.00052 | 0.05809 ± 0.00026 | 0.0544 ± 0.0018
M60L K104V L107C G128I | 1.223 ± 0.006 | 3.59 ± 0.22 | 3.12 ± 0.6
I90S | 0.0601 ± 0.0031 | 0.0671 ± 0.0036 | 0.384 ± 0.0091
I90T | 0.0608 ± 0.0021 | 0.07953 ± 0.00052 | 0.595 ± 0.007
P61H | 0.0658 ± 0.00078 | 0.117 ± 0.0021 | 0.797 ± 0.015
P61L | 0.0638 ± 0.0026 | 0.0823 ± 0.0039 | 0.191 ± 0.0057
P61K | 0.068 ± 0.00078 | 0.107 ± 0.0031 | 1.6 ± 0.1
P61V | 0.0651 ± 0.0013 | 0.09 ± 0.0029 | 0.302
H105A | 0.0623 | 0.0687 ± 0.0044 | 0.769 ± 0.086
F21I | 0.0597 | 0.0575 ± 0.0031 | 0.0607 ± 0.0018
F21V | 0.0625 ± 0.00078 | 0.0608 | 0.0669 ± 0.00078

Variant | sfGFP reporter fluorescence [1] | sfGFP reporter fluorescence ([2]; ligand: 1 µM Pb) | sfGFP reporter fluorescence ([2]; ligand: 30 µM Zn)
P61N D64K | 0.232 ± 0.0052 | 0.762 ± 0.12 | 3.05 ± 0.076
L107V | 0.0854 ± 0.001 | 0.19 ± 0.022 | 2.03 ± 0.021
L107W | 0.0599 ± 0.0013 | 0.0638 | 0.118 ± 0.0013
L107C | 0.491 ± 0.053 | 1.05 ± 0.062 | 2.85 ± 0.46
L107Y | 0.0603 ± 0.0013 | 0.06762 ± 0.00026 | 0.209 ± 0.0091
L107Q | 0.0579 ± 0.0047 | 0.08521 ± 0.00078 | 0.764 ± 0.047
R74A | 0.0596 ± 0.0013 | 0.0669 ± 0.0065 | 0.369 ± 0.079
P61N K104V L107C | 0.283 ± 0.021 | 1.28 ± 0.11 | 2.54 ± 0.079
C123G | 0.0535 ± 0.001 | 0.0552 ± 0.0013 | 0.0502 ± 0.0015
C123D | 0.0577 ± 0.0039 | 0.0586 | 0.0564 ± 0.0031
C123K | 0.0592 ± 0.0039 | 0.0597 ± 0.001 | 0.0574 ± 0.0029
C123H | 0.0588 ± 0.0018 | 0.05901 ± 0.00052 | 0.0561 ± 0.0021
G36V | 0.06011 ± 0.00052 | 0.0711 ± 0.00052 | 0.322 ± 0.011
G36I | 0.05589 ± 0.00026 | 0.0579 ± 0.0015 | 0.117 ± 0.0044
P61N D64K K104V G128I | 0.32 ± 0.048 | 0.989 ± 0.27 | 2.48 ± 0.29
N83G | 0.0559 ± 0.00078 | 0.0748 ± 0.001 | 0.692 ± 0.13
C79F | 0.055 ± 0.0026 | 0.0574 ± 0.0013 | 0.0546 ± 0.0015
C79Y | 0.0597 ± 0.0031 | 0.0585 ± 0.00078 | 0.0564 ± 0.001
P61N D64K L107C G128I | 3.28 ± 0.15 | 4.88 ± 0.7 | 4.54 ± 0.044
L110A | 0.0727 ± 0.0013 | 0.0698 ± 0.0018 | 0.0729 ± 0.0026
L110F | 0.05626 ± 0.00026 | 0.0599 ± 0.0018 | 0.0619 ± 0.0021
L110M | 0.0568 ± 0.0015 | 0.05644 ± 0.00052 | 0.0574 ± 0.0023

Variant | sfGFP reporter fluorescence [1] | sfGFP reporter fluorescence ([2]; ligand: 1 µM Pb) | sfGFP reporter fluorescence ([2]; ligand: 30 µM Zn)
L110H | 0.0638 ± 0.0021 | 0.081 ± 0.0042 | 2.52 ± 0.29
L110W | 0.057 ± 0.0018 | 0.0572 ± 0.0015 | 0.0537 ± 0.0023
P30L | 0.0614 ± 0.00078 | 0.0894 ± 0.0031 | 0.901 ± 0.0029
P30H | 0.0618 ± 0.00078 | 0.0808 ± 0.0023 | 0.659 ± 0.038
P30F | 0.0603 ± 0.0018 | 0.0759 ± 0.001 | 0.489 ± 0.015
P30D | 0.0658 ± 0.0029 | 0.08338 ± 0.00026 | 0.391 ± 0.088
L68F | 0.07935 ± 0.00078 | 0.166 ± 0.0029 | 1.42 ± 0.11
L68W | 0.0627 ± 0.0026 | 0.06157 ± 0.00052 | 0.111 ± 0.0018
L68N | 0.0588 ± 0.0013 | 0.05992 ± 0.00026 | 0.0599 ± 0.0013
P61N K104V L107C G128M | 0.584 ± 0.064 | 2.12 ± 0.083 | 3.41 ± 0.56
E43F | 0.05846 ± 0.00026 | 0.0828 ± 0.015 | 0.99 ± 0.18
I3P | 0.0592 ± 0.0018 | 0.0583 ± 0.0036 | 0.0546 ± 0.0026
I3T | 0.0597 ± 0.001 | 0.0667 ± 0.0047 | 0.331 ± 0.011
I3W | 0.05919 ± 0.00026 | 0.0766 ± 0.001 | 0.957 ± 0.056
I3Y | 0.0612 ± 0.0021 | 0.06744 ± 0.00052 | 0.977 ± 0.061
Q4A | 0.0537 ± 0.0044 | 0.0555 ± 0.0018 | 0.4821 ± 0.0029
K104N | 0.0557 ± 0.0073 | 0.0823 ± 0.025 | 0.879 ± 0.15
K104M | 0.059 ± 0.0088 | 0.111 ± 0.035 | 1.13 ± 0.15
K104F | 0.0581 ± 0.011 | 0.117 ± 0.029 | 0.889 ± 0.037
D64K G128I | 0.371 ± 0.021 | 1.32 ± 0.067 | 4.45 ± 0.14
R39T | 0.0616 ± 0.001 | 0.0608 | 0.06029 ± 0.00026
S130A | 0.0599 ± 0.0013 | 0.0821 ± 0.001 | 0.862 ± 0.14
